Values belong to the substance of their own block, whether it stands above or below them.
Legend:
[1] = biological target: CXCR4 (chemokine receptor CXCR-4) on PM1 cells; assay: flow cytometry, PE-conjugated isotype control on PM1 cells (non-specific fluorescence)
[2] = biological target: CXCR4 (chemokine receptor CXCR-4) on PM1 cells; assay: flow cytometry, PE-12G5 alone on PM1 cells, 30 min at 4° C.
[3] = tested on: Rev peptide (Rev34-50, RhdRev) (HIV-1); assay: FP; conditions: 10 nM tracer titrated with RNA, 85 mM NaCl, 2 mM KCl, 0.5 mM CaCl2, 0.5 mM MgCl2, 10 mM HEPES pH 7.5
[4] = tested on: Tat49-57 peptide (HIV-1); conditions: CITED natural ligand affinity quoted for comparison, method not stated; cited from earlier work
[5] = tested on: Rev34-50 peptide (HIV-1); conditions: CITED natural ligand affinity quoted for comparison, method not stated; cited from earlier work

CXCR4 (chemokine receptor CXCR-4) on PM1 cells, sequence (P61073 whole entry): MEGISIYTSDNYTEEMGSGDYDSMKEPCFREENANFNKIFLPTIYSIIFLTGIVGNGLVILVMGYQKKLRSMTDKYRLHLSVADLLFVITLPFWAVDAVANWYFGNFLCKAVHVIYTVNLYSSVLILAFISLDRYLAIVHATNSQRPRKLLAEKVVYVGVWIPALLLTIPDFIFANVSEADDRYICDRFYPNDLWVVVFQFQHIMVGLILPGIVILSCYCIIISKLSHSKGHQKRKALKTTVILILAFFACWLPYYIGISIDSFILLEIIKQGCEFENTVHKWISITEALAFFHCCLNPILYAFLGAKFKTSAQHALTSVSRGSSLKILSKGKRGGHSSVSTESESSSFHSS

MFI (median fluorescence intensity) [1]: 30 MFI
Substance: PE-conjugated isotype control mAb (antibody)

MFI (median fluorescence intensity) [2]: 451 MFI
Substance: anti-CXCR4 mAb, 12G5 (PharMingen, San Diego, Calif.) conjugated to phycoerithrine (PE) (antibody)

Substance: TAR RNA
Kd ([3]; table unit taken from text (7 nM)): 7.3 nM | Kd [4]: 12 nM

Substance: RRE IIB RNA
Kd ([3]; text gives 16 nM): 16.6 nM | Kd [5]: 40 nM

From US20040229265A1
